According to patent publication US11872270B2, “A*03 restricted peptides for use in immunotherapy against cancers and related methods” (Immatics Biotechnologies GmbH, priority 2018, dated 2024):

target: HLA-A*03:01 (Homo sapiens, UniProt P04439); assay: MHC binding assay (UV-ligand exchange, β2m ELISA); settings: binding to HLA-A*03:01, UV-ligand exchange, β2m ELISA
Text: Candidate peptides for T cell based therapies according to the present invention were further tested for their MHC binding capacity (affinity). The individual peptide-MHC complexes were produced by UV-ligand exchange, where a UV-sensitive peptide is cleaved upon UV-irradiation and exchanged with the peptide of interest as analyzed. Only peptide candidates that can effectively bind and stabilize the peptide-receptive MHC molecules prevent dissociation of the MHC complexes. To determine the yield of the exchange reaction, an ELISA was performed based on the detection of the light chain (β2m) of stabilized MHC complexes. The assay was performed as generally described in Rodenko et al. (Rodenko et al., 2006) 96 well MAXISorp plates (NUNC) were coated over night with 2 ug/ml streptavidin in PBS at room temperature, washed 4× and blocked for 1 h at 37° C. in 2% BSA containing blocking buffer. Refolded HLA-A*02:01/MLA-001 monomers served as standards, covering the range of 15-500 ng/ml. Peptide-MHC monomers of the UV-exchange reaction were diluted 100-fold in blocking buffer. Samples were incubated for 1 h at 37° C., washed four times, incubated with 2 ug/ml HRP conjugated anti-β2m for 1 h at 37° C., washed again and detected with TMB solution that is stopped with […]. Absorption was measured at 450 nm. Candidate peptides that show a high exchange yield (preferably higher than 50%, most preferred higher than 75%) are generally preferred for a generation and production of antibodies or fragments thereof, and/or T cell receptors or fragments thereof, as they show sufficient avidity to the MHC molecules and prevent dissociation of the MHC complexes.

How did the “Peptide exchange (MHC class I binding score, peptide exchange yield)” value (“Peptide exchange” below) turn out when “61 (SLYDSEPRKK; listed as Homo sapiens) [compound 61]” was run?
Its value is “++++ (>75% = ++++)”.

“62 (GIFPKIMPK; listed as Homo sapiens) [compound 62]” was tested. Which “Peptide exchange” value did it give?
Its value is “++++ (>75% = ++++)”.

“63 (SSFRPLLSK; listed as Homo sapiens) [compound 63]” was tested. Which “Peptide exchange” value did it give?
Its value is “++++ (>75% = ++++)”.

For “65 (RTIEELQNK; listed as Homo sapiens) [compound 65]”, which “Peptide exchange” value is on record?
The value was “+++ (>50 = +++)”.

How did the “Peptide exchange” value turn out when “66 (RVKEIVINK; listed as Homo sapiens) [compound 66]” was run?
Its value is “+++ (>50 = +++)”.

“67 (VVREILHAQTLK; listed as Homo sapiens) [compound 67]” was tested. Which “Peptide exchange” value did it give?
The value was “+++ (>50 = +++)”.

How did the “Peptide exchange” value turn out when “68 (KGPMAGILAY; listed as Homo sapiens) [compound 68]” was run?
The value was “++ (>20% = ++)”.

Which “Peptide exchange” value does the source give for “70 (VTAVASLLK; listed as Homo sapiens) [compound 70]” here?
The value was “++++ (>75% = ++++)”.

For “72 (KLYPQCLQK; listed as Homo sapiens) [compound 72]”, which “Peptide exchange” value is on record?
Its value is “++++ (>75% = ++++)”.

Which “Peptide exchange” value does the source give for “73 (RCFSGPYLNK; listed as Homo sapiens) [compound 73]” here?
The value was “++++ (>75% = ++++)”.

Which “Peptide exchange” value does the source give for “75 (IIFVPEMNK; listed as Homo sapiens) [compound 75]” here?
The value was “++++ (>75% = ++++)”.

How did the “Peptide exchange” value turn out when “76 (IINESLLFY; listed as Homo sapiens) [compound 76]” was run?
Its value is “+++ (>50 = +++)”.

Which “Peptide exchange” value does the source give for “78 (KTGTFVLYKS; listed as Homo sapiens) [compound 78]” here?
The value was “+++ (>50 = +++)”.

For “79 (AVAAVLLSR; listed as Homo sapiens) [compound 79]”, which “Peptide exchange” value is on record?
Its value is “+++ (>50 = +++)”.

Which “Peptide exchange” value does the source give for “80 (ALCGTQLFY; listed as Homo sapiens) [compound 80]” here?
Its value is “++++ (>75% = ++++)”.

For “82 (CLANYTVNK; listed as Homo sapiens) [compound 82]”, which “Peptide exchange” value is on record?
Its value is “++++ (>75% = ++++)”.

How did the “Peptide exchange” value turn out when “83 (KLADSVMAGK; listed as Homo sapiens) [compound 83]” was run?
Its value is “++++ (>75% = ++++)”.

How did the “Peptide exchange” value turn out when “84 (QLYSPPSPSYR; listed as Homo sapiens) [compound 84]” was run?
The value was “++++ (>75% = ++++)”.

For “85 (IMPTFDLTK; listed as Homo sapiens) [compound 85]”, which “Peptide exchange” value is on record?
The value was “+ (>10% = +)”.

How did the “Peptide exchange” value turn out when “86 (RVSGSGGGGAGK; listed as Homo sapiens) [compound 86]” was run?
The value was “+++ (>50 = +++)”.

“87 (RLASVGLDAK; listed as Homo sapiens) [compound 87]” was tested. Which “Peptide exchange” value did it give?
The value was “++++ (>75% = ++++)”.

How did the “Peptide exchange” value turn out when “88 (GTHVWVGLYK; listed as Homo sapiens) [compound 88]” was run?
The value was “++++ (>75% = ++++)”.

How did the “Peptide exchange” value turn out when “89 (VIYVICRHK; listed as Homo sapiens) [compound 89]” was run?
The value was “+++ (>50 = +++)”.

How did the “Peptide exchange” value turn out when “90 (RTALLWGLKK; listed as Homo sapiens) [compound 90]” was run?
Its value is “++++ (>75% = ++++)”.

For “91 (IMKRQVKCITK; listed as Homo sapiens) [compound 91]”, which “Peptide exchange” value is on record?
The value was “+ (>10% = +)”.

How did the “Peptide exchange” value turn out when “92 (KRIPFRPLAK; listed as Homo sapiens) [compound 92]” was run?
Its value is “++ (>20% = ++)”.

For “93 (SVEGLSRRLK; listed as Homo sapiens) [compound 93]”, which “Peptide exchange” value is on record?
The value was “+++ (>50 = +++)”.

“94 (GMTLLCEALK; listed as Homo sapiens) [compound 94]” was tested. Which “Peptide exchange” value did it give?
Its value is “++ (>20% = ++)”.
